Experimental findings from publication PMC3303844, “C-Terminal Extension of the Yeast Mitochondrial DNA Polymerase Determines the Balance between Synthesis and Degradation” are described below.

Conditions in all cases: protein: recombinant; tags: N-terminal 6xHis; label: 32P at 5' end of D25 primer; 25 bp duplex, 5' overhang 20 nt on D45 (recessed primer 3' end)
For data set [1], the target named is T1, Mip1Δ279 (Saccharomyces cerevisiae, UniProt P15801 30-975, del976-1254).
T1 sequence: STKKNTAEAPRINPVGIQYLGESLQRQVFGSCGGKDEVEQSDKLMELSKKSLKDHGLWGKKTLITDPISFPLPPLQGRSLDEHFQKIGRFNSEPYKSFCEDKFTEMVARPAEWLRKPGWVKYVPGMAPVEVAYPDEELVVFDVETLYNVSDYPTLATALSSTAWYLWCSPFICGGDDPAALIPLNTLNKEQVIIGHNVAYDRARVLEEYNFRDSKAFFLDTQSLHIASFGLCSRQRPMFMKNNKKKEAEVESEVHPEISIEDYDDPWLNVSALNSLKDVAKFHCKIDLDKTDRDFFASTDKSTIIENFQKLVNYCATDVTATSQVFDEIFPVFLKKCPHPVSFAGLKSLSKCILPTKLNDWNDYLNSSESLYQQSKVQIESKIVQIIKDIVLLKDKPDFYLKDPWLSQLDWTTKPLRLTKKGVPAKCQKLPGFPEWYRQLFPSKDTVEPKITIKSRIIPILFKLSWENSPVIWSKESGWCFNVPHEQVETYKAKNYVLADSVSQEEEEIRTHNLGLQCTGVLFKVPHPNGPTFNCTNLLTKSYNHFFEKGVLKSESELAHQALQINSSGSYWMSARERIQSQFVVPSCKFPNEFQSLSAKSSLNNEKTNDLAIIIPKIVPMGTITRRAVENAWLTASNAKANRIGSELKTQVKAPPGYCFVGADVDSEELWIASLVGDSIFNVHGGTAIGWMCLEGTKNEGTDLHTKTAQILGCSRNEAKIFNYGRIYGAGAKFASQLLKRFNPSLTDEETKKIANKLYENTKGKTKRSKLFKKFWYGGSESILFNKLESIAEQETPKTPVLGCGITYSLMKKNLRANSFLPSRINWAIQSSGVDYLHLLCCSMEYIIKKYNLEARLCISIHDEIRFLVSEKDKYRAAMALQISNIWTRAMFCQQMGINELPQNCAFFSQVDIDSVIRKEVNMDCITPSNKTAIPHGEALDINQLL
The experiment in a line: EMSA; faint shifted band, complex possibly retained in well (aggregation); not quantified; EMSA: 1 nM substrate, 0.2-12.5 nM polymerase, 20 mM Tris-HCl pH 8.0, 40 mM KCl, 10% glycerol, 0.1 mg/ml BSA, 2 mM DTT, 2 min at 0°C; native 8% Tris-glycine gel. (A gel shift assay detects complexes by their altered migration in electrophoresis.)

Data set [2] concerns the target T2, FL-Mip1 (mitochondrial DNA polymerase gamma) (Saccharomyces cerevisiae, UniProt P15801 30-1254).
T2 sequence: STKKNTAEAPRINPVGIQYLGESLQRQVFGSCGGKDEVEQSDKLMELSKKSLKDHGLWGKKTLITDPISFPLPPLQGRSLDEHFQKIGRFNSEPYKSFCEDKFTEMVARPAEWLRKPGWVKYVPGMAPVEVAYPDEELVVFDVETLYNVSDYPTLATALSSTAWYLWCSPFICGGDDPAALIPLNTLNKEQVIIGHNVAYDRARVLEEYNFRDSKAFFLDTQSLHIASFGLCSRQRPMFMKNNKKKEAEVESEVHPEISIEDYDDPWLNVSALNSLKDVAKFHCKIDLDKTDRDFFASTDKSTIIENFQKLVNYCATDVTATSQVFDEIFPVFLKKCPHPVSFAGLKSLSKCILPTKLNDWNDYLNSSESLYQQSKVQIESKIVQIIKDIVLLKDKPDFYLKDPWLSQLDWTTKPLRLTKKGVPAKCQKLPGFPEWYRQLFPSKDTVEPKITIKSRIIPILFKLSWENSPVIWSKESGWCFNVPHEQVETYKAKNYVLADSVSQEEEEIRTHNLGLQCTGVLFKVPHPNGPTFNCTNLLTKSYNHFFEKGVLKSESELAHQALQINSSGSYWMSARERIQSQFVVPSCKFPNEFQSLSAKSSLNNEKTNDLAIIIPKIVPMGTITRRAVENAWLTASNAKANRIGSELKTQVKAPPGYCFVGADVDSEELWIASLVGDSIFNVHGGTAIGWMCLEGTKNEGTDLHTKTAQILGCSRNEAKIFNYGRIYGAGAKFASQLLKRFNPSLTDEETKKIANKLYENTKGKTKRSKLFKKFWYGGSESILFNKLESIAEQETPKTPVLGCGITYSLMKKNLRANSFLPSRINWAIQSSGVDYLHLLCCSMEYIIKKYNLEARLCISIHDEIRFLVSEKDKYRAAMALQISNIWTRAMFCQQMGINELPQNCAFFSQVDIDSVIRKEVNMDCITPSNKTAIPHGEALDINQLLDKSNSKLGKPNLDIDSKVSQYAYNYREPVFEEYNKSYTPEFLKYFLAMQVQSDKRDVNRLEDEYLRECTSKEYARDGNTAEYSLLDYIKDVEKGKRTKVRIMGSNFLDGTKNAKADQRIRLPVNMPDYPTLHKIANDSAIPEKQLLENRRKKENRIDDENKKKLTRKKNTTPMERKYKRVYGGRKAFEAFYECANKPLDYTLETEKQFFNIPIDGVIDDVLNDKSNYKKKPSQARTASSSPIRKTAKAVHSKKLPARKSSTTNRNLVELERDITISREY
The experiment in a line: EMSA; no Mg2+ or dNTP in binding mix; EMSA: 1 nM substrate, 0.2-12.5 nM polymerase, 20 mM Tris-HCl pH 8.0, 40 mM KCl, 10% glycerol, 0.1 mg/ml BSA, 2 mM DTT, 2 min at 0°C; native 8% Tris-glycine gel.

Data set [3] concerns the target T3, Mip1Δ216 (Saccharomyces cerevisiae, UniProt P15801 30-1038, del1039-1254).
T3 sequence: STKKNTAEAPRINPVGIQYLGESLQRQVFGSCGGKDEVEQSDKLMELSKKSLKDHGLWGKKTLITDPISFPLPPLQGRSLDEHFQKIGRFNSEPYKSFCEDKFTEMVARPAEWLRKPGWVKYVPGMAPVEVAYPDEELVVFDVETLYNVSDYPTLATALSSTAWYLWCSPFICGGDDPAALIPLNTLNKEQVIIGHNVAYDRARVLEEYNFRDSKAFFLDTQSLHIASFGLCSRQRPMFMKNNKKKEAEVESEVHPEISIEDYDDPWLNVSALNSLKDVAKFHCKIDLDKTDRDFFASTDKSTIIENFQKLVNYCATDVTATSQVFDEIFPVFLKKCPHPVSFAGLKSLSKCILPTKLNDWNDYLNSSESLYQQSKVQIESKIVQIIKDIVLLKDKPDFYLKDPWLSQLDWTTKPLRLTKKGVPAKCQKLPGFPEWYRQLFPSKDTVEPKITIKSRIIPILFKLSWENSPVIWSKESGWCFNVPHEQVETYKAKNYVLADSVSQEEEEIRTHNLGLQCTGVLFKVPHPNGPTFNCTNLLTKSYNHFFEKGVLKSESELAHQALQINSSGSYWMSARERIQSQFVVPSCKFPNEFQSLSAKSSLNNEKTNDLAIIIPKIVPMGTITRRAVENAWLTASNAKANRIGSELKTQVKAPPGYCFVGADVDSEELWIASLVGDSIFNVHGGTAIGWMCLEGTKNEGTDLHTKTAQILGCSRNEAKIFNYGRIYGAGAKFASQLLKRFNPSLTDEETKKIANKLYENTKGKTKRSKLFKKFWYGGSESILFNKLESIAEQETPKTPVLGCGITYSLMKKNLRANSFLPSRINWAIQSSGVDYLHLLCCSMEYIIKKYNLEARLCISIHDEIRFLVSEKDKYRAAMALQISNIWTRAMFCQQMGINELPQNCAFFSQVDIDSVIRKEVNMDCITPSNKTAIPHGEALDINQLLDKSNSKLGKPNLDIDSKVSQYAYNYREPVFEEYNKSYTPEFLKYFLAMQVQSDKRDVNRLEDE
The description is as above.

In data set [4] the target is T4, Mip1Δ175 (Saccharomyces cerevisiae, UniProt P15801 30-1079, del1080-1254).
T4 sequence: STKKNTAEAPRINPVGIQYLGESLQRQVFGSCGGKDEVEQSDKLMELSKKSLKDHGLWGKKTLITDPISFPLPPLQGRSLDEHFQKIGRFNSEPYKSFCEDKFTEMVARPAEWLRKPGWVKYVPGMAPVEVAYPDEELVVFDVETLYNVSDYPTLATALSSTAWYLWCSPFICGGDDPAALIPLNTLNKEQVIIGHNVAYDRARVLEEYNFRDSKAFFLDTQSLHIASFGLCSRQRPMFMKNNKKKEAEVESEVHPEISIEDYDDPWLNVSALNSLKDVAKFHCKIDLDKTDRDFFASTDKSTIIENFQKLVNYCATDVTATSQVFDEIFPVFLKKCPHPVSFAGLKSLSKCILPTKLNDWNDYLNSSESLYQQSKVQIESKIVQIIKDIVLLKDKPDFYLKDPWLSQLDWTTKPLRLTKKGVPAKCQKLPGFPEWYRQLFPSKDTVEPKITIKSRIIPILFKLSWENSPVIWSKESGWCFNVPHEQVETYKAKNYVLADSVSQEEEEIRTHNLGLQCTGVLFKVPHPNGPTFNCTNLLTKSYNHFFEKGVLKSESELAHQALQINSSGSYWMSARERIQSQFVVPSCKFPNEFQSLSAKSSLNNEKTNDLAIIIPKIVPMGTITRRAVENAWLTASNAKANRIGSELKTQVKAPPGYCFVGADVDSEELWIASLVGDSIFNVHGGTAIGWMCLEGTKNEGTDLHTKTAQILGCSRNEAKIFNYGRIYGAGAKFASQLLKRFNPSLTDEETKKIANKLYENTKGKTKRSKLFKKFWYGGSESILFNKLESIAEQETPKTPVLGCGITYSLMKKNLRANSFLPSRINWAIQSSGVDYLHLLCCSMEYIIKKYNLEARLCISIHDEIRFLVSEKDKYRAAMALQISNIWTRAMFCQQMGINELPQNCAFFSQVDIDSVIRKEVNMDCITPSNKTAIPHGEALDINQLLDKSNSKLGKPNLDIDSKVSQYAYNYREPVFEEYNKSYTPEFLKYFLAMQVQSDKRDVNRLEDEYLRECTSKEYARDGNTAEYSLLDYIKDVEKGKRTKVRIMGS
The description is as above.

B1: 45/25 primer-template (D45/D25) (dsDNA)
DNA 1: GGACGGCATTGGATCGAGGTTGAGTTGGTTGGACGGCTGCGAGGC
DNA 2: GCCTCGCAGCCGTCCAACCAACTCA
As a reminder, the Kd is a measure of binding affinity in units of concentration. On to B1, for which, in data set [1], the binding result was “binds”. Also, the Kd in data set [2] came out at 4.3 ± 0.68 nM; in data set [3], 0.95 ± 0.18 nM; in data set [4] it was 2.2 ± 0.75 nM.
